Results reported in US20090285798A1 (COMMISSARIAT A L ENERGIE ATOMIQUE, published 2009).

B1: CD4M48_U1 (peptide)
peptide: XNLHFCQLRCKSLGLLGRCAXTXCACV
modifications: not fully specified; N-terminal thiopropionic acid (TPA) at position 1; (D)Pro at 21; para-cyclo-hexylmethoxyphenylalanine (U1) at 23; C-terminal amide
B2: CD4M48_U2 (peptide)
peptide: XNLHFCQLRCKSLGLLGRCAXTXCACV
modifications: not fully specified; N-terminal thiopropionic acid (TPA) at position 1; (D)Pro at 21; para-cyclo-pentylethoxyphenylalanine (U2) at 23; C-terminal amide
B3: CD4M48_U3 (peptide)
peptide: XNLHFCQLRCKSLGLLGRCAXTXCACV
modifications: not fully specified; N-terminal thiopropionic acid (TPA) at position 1; (D)Pro at 21; Phe(para-[phenyl-ethoxy]) (U3) at 23; C-terminal amide
B4: CD4M48 (peptide)
peptide: XNLHFCQLRCKSLGLLGRCAXTFCACV
modifications: not fully specified; N-terminal thiopropionic acid (TPA) at position 1; (D)Pro at 21; C-terminal amide
notes: optimized mini-protein, Phe at 23; unlabelled monomer; also called B4T
B5: CD4M48D100 (peptide)
peptide: XNLHFCQLRCKSLGLLGRCAXTFCACV
modifications: not fully specified; N-terminal thiopropionic acid (TPA) at position 1; (D)Pro at 21; C-terminal amide; Lys11 carries a mercapto group ligated to a maleimido group of a polylysine construct with 100 Å PEGylated linkers
notes: dimer of CD4M48-SH on a polylysine construct
B6: CD4M48T100 (peptide)
peptide: XNLHFCQLRCKSLGLLGRCAXTFCACV
modifications: not fully specified; N-terminal thiopropionic acid (TPA) at position 1; (D)Pro at 21; C-terminal amide; Lys11 carries a mercapto group ligated to a maleimido group of a polylysine construct with 100 Å PEGylated linkers
notes: tetramer of CD4M48-SH on a polylysine construct
B7: CD4M48-heparin (peptide)
peptide: XNLHFCQLRCKSLGLLGRCAXTFCACV
modifications: not fully specified; N-terminal thiopropionic acid (TPA) at position 1; (D)Pro at 21; C-terminal amide; Lys11 carries a hydrazino group ligated to heparin mono-aldehyde
B8: CD4M47 (peptide)
peptide: XNLHFCQLRCKSLGLLGRCAXTXCACV
modifications: not fully specified; N-terminal thiopropionic acid (TPA) at position 1; (D)Pro at 21; biphenylalanine (Bip) at 23; C-terminal amide
B9: Alexa labeled mini-protein CD4M47 (peptide)
peptide: XNLHFCQLRCKSLGLLGRCAXTXCACV
modifications: not fully specified; N-terminal thiopropionic acid (TPA) at position 1; (D)Pro at 21; biphenylalanine (Bip) at 23; C-terminal amide; Alexa-488 on Lys11
notes: also called CD4M47-F; CD4M47-F1
B10: CD4M48D50 (peptide)
peptide: XNLHFCQLRCKSLGLLGRCAXTFCACV
modifications: not fully specified; N-terminal thiopropionic acid (TPA) at position 1; (D)Pro at 21; C-terminal amide; Lys11 carries a mercapto group ligated to a maleimido group of a polylysine construct with 50 Å PEGylated linkers
notes: as for B5
B11: CD4M48T50 (peptide)
peptide: XNLHFCQLRCKSLGLLGRCAXTFCACV
modifications: not fully specified; N-terminal thiopropionic acid (TPA) at position 1; (D)Pro at 21; C-terminal amide; Lys11 carries a mercapto group ligated to a maleimido group of a polylysine construct with 50 Å PEGylated linkers
notes: as for B6
B12: Alexa labeled mini-protein CD4M33 (peptide)
peptide: XNLHFCQLRCKSLGLLGKCAGSXCACV
modifications: not fully specified; biphenylalanine (Bip) at 23; Alexa-488 on Lys11
B13: Alexa labeled mini-protein CD4M48 (peptide)
peptide: XNLHFCQLRCKSLGLLGRCAXTFCACV
modifications: not fully specified; N-terminal thiopropionic acid (TPA) at position 1; (D)Pro at 21; C-terminal amide; Alexa-488 on Lys11
notes: also called CD4M48-F1; Alexa 488-labeled CD4M48

Tests used:
[1] = biological target: VI1358 pseudovirus envelope (HIV-1); experiment: cell-based or functional assay
BaL virus envelope [2] = biological target: BaL virus envelope (HIV-1 groupM); experiment: cell-based or functional assay
Mn pseudovirus envelope = Mn pseudovirus envelope (HIV-1, UniProt P05877 32-856); experiment: cell-based or functional assay
[3] = biological target: CA10-3 pseudovirus envelope (HIV-1); experiment: cell-based or functional assay
[4] = biological target: VI829 pseudovirus envelope (HIV-1); experiment: cell-based or functional assay
MJ4 pseudovirus envelope = MJ4 pseudovirus envelope (HIV-1); experiment: cell-based or functional assay
[5] = biological target: SF162 pseudovirus envelope (HIV-1, UniProt P19550 32-847); experiment: cell-based or functional assay
gp120SF162 [6] = biological target: T1, gp120SF162 (HIV-1, UniProt P19550 32-502); experiment: competitive ELISA, IC50 values of Table III (largest ratio falls on gp120SF162)
T1 construct: domain: gp120
Method: Competition binding assays in ELISA were performed in 96-wells plates (MAXISORB). Briefly, 50 ng per well of antibody D7324 (AALTO BIO REAGENTS) were coated overnight at 4° C.

gp120SF162 [7] = biological target: T1, gp120SF162; experiment: fluorescence polarization competition: 6 nM gp120SF162, 1 nM fluorescein-CD4M33
From the text: (§1) Binding assays by fluorescence anisotropy were made in a LJL Analyst (LJL BIOSYSTEMS) microplate reader using 384-wells plates.

NL4.3 env = NL4.3 env (HIV-1 groupM); experiment: cell-based or functional assay
BaL virus envelope [8] = biological target: BaL virus envelope (HIV-1 groupM); experiment: cell-based or functional assay; remark: listed apart in the source
[9] = biological target: HIV-1 isolate 77 envelope (HIV-1); experiment: cell-based or functional assay
[10] = biological target: HIV-1 isolate 6393 envelope (HIV-1); experiment: cell-based or functional assay
[11] = biological target: HIV-1 isolate 714 envelope (HIV-1); experiment: cell-based or functional assay
gp120 SF2 [12] = biological target: T2, gp120 SF2 (HIV-1, UniProt P03378 32-509); experiment: fluorescence anisotropy, 0.5 nM CD4M47-F titrated with gp120
T2 construct: domain: gp120

gp120YU2 = biological target: T3, gp120YU2 (HIV-1, UniProt P35961 32-498); experiment: as above
T3 construct: domain: gp120

gp120 Bal [13] = biological target: T4, gp120 Bal (HIV-1); experiment: as above
T4 construct: domain: gp120

gp120 IIIB [14] = biological target: T5, gp120 IIIB (HIV-1); experiment: as above
T5 construct: domain: gp120

gp120SF162 [15] = biological target: T1, gp120SF162; experiment: as above
gp120SF162 [16] = biological target: T1, gp120SF162; experiment: fluorescence anisotropy, ratio of the Kd values of Table I (upper end falls on SF162)
gp120 Bal [17] = biological target: T4, gp120 Bal; experiment: fluorescence anisotropy, ratio of the Kd values of Table I (lower end falls on Bal)
gp120 Bal [18] = biological target: T4, gp120 Bal; experiment: fluorescence anisotropy, Alexa-488-labelled mini-protein (0.5 nM) titrated with gp120 in solution
Method: as §1
(§2) Direct binding assays of fluorescent peptides were performed in triplicates by adding 10 μL of 0.5 nM Alexa-labeled mini-proteins and 10 μL of serial dilutions (two-thirds dilutions in 16 wells, starting at 200 nM) of gp120 SF2, SF162, BaL, IIIB and YU2. Collected data were fitted to the following equation using a non-linear regression program (Prism, GraphPad software Inc.):

gp120 IIIB [19] = biological target: T5, gp120 IIIB; experiment: as above
Method: as §1, §2

gp120 SF2 [20] = biological target: T2, gp120 SF2; experiment: fluorescence anisotropy, ratio of the Kd values of Table I (lower end falls on SF2)

Row | Binder | EC50, single-cycle HIV-1 pseudovirus infection of GHOST cells (luciferase) [1] [nM] | EC50, single-cycle HIV-1 pseudovirus infection of GHOST cells (luciferase) (BaL virus envelope [2]) [nM] | EC50, single-cycle HIV-1 pseudovirus infection of GHOST cells (luciferase) (Mn pseudovirus envelope) [nM] | EC50, single-cycle HIV-1 pseudovirus infection of GHOST cells (luciferase) [3] [nM] | EC50, single-cycle HIV-1 pseudovirus infection of GHOST cells (luciferase) [4] [nM] | EC50, single-cycle HIV-1 pseudovirus infection of GHOST cells (luciferase) (MJ4 pseudovirus envelope) [nM] | EC50, single-cycle HIV-1 pseudovirus infection of GHOST cells (luciferase) [5] [nM] | IC50 (read off the curve) (gp120SF162 [7]) [nM] | IC50, HIV-1 infection of PBMC (p24, day 12) (NL4.3 env) [nM] | IC50, acute HIV-1 infection of PM1 cells (p24, day 5) [9] [nM] | other results
1 | B1 | 5 | 2 | 0.07 | 0.3 | 11 | 87 | 0.65 |  |  |  | 
2 | B2 | 42 | 4 | 0.08 | 3.6 | 98 | 773 | 1.6 |  |  |  | fold enhanced affinity compared to CD4M47 (gp120SF162 [6]): ≤ 3 fold
3 | B3 | 364 | 67 | 0.13 | 29 | 950 | > 3270 | 2 |  |  |  | 
4 | B4 | 57 | 77 | 4 | 63 | 755 | > 3300 | 5 | ~3 | 0.44 | 250 | IC50, HIV-1 infection of MT-4 cells (MTS viability, day 5) (NL4.3 env): 2.6 nM; IC50, acute HIV-1 infection of PM1 cells (p24, day 5) (BaL virus envelope [8]): 185 nM; IC50, acute HIV-1 infection of PM1 cells (p24, day 5) [10]: 95 nM; IC50, acute HIV-1 infection of PM1 cells (p24, day 5) [11]: 670 nM
5 | B5 |  |  |  |  |  |  |  | ~2 | < 1.8 | 3 | 
6 | B6 |  |  |  |  |  |  |  | ~2 | 1.3 | < 4 | 
7 | B7 |  |  |  |  |  |  |  |  | < 80 | < 4 | IC50, HIV-1 infection of MT-4 cells (MTS viability, day 5) (NL4.3 env): 112 nM; IC50, acute HIV-1 infection of PM1 cells (p24, day 5) (BaL virus envelope [8]): 850 nM
8 | B8 | 579 | 108 | 1 | 91 | 1200 | > 3410 | 22 |  |  |  | 
9 | B9 |  |  |  |  |  |  |  |  |  |  | EC50 (read off the curve) (gp120 SF2 [12]): ~300 pM; EC50 (read off the curve) (gp120YU2): ~3 nM; EC50 (read off the curve) (gp120 Bal [13]): ~1 nM; EC50 (read off the curve) (gp120 IIIB [14]): ~900 pM; EC50 (read off the curve) (gp120SF162 [15]): ~300 pM; fold improvement of affinity over CD4M33 (gp120SF162 [16]): 5.2 to 12.3 fold; fold improvement of affinity over CD4M33 (gp120 Bal [17]): 5.2 to 12.3 fold; Kd (gp120 Bal [18]): 1.22 nM; Kd (gp120 IIIB [19]): 0.589 nM
10 | B10 |  |  |  |  |  |  |  | ~1 |  |  | 
11 | B11 |  |  |  |  |  |  |  | ~1 |  |  | 
12 | B12 |  |  |  |  |  |  |  |  |  |  | Kd (gp120 Bal [18]): 6.36 nM; Kd (gp120 IIIB [19]): 3.81 nM
13 | B13 |  |  |  |  |  |  |  |  |  |  | factor by which the Kd is smaller than that of CD4M33 (gp120SF162 [16]): 6.1 fold; Kd (gp120 Bal [18]): 5.46 nM; Kd (gp120 IIIB [19]): 0.982 nM; factor by which the Kd is smaller than that of CD4M33 (gp120 SF2 [20]): 1.1 fold
